# Target: AAV8 VP3 of the VP3-only capsid (VLP-0) (adeno-associated virus serotype 8)
# Assay: native MS; high-resolution ensemble native MS of purified capsids; 75 mM ammonium acetate pH 7.5; Orbitrap Q Exactive UHMR, xenon collision gas, positive ion mode; spectra compared with simulations of stochastic assembly
substance,measurement,value
AAV8 VP3 of the VP3-only capsid (VLP-0) (natural protein),stoichiometry N,60

# — article PMC10498669
